Reference: publication PMC9402538, “Rational design of a sensitivity-enhanced tracer for discovering efficient APC–Asef inhibitors” (Nature Communications, 2022)
Primed or numbered codes have the meaning given here. [ ]: non-standard residue; d: D form. The star is where a group is joined. FITC = O=C1OC2(c3ccc(O)cc3Oc3cc(O)ccc32)c2ccc(NC(=S)*)cc21; Phe(4-tBu) = CC(C)(C)c1ccc(C[C@H](N)C(=O)O)cc1; Bpa = N[C@@H](Cc1ccc(C(=O)c2ccccc2)cc1)C(=O)O; Ala(cPent) = N[C@@H](CC1CCCC1)C(=O)O; FITC′ = fluorescein isothiocyanate; hLeu = CC(C)CC[C@H](N)C(=O)O; 2Furoyl = O=C(c1ccco1)*; Cbz = O=C(OCc1ccccc1)*; Bz = O=C(c1ccccc1)*

T1: APC (303–739) (UniProt P25054 303-739)
T1 construct: adenomatous polyposis coli (APC), residues 303–739; The methods name this construct for FP and SPR; the ITC methods say only 'APC protein'; Plasmid was a gift (Dr. Geng Wu); pET28a; also called APC WT; adenomatous polyposis coli; source: E. coli BL21 (DE3), purified (Ni-NTA)
T1 sequence (looked up): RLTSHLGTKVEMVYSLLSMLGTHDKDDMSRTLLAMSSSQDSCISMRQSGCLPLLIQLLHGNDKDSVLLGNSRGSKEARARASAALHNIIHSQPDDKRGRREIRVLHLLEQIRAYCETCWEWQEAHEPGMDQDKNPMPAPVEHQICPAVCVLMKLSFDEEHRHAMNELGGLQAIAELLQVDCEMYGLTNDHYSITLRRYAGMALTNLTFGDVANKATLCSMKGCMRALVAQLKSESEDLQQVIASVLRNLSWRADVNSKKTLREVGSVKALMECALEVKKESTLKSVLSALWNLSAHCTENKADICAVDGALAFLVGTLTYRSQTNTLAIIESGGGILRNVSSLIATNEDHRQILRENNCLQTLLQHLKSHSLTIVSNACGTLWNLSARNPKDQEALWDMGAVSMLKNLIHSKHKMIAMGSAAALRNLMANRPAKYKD

T2: APC (303-739) (UniProt P25054 303-739)
T2 construct: adenomatous polyposis coli (APC), residues 303-739; pET28a construct; also called APC WT; adenomatous polyposis coli; source: E. coli BL21 (DE3), purified (Ni-NTA)
T2 sequence (looked up): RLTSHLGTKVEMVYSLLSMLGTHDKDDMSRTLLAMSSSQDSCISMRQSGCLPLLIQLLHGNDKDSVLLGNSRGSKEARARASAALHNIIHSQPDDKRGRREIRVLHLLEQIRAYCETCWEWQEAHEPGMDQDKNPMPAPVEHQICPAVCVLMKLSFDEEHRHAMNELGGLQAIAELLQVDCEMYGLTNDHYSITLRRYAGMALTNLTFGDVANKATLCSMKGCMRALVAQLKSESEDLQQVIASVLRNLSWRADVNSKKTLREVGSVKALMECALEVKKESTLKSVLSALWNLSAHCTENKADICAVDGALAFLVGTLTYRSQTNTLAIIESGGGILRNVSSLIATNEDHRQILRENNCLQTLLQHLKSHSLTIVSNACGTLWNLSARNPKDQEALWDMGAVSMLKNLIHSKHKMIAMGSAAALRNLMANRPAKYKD


Legend:
Conditions in all cases: both partners purified
APC (303–739) [1] = target: T1, APC (303–739); assay: ITC; MicroCal ITC200, 30 °C; 50 mM HEPES pH 7.5, 300 mM NaCl, 1 mM EDTA; APC in the cell at 10–20 μM, peptide injected at 100–200 μM; single-site model
APC (303–739) [2] = target: T1, APC (303–739); assay: fluorescence polarisation; direct binding: tracer fixed at 20 nM, a range of concentrations of APC (303–739), read after 1.5 h; EC50 by nonlinear regression
APC (303-739) [3] = target: T2, APC (303-739); assay: ITC; APC protein in the cell at 10-20 μM, peptide injected at 100-200 μM; 50 mM HEPES pH 7.5, 300 mM NaCl, 1 mM EDTA; 30 °C; single-site model
APC (303-739) [4] = target: T2, APC (303-739); assay: fluorescence polarisation; competition with tracer 1: APC (303-739) 1.0 μM and tracer 1 20 nM (Table 2), serial dilution of peptide
APC (303-739) [5] = target: T2, APC (303-739); assay: fluorescence polarisation; competition with tracer 7: 25 nM APC (303-739), serial dilution of peptide, 20 nM tracer 7; 50 mM HEPES pH 7.5, 300 mM NaCl, 1 mM EDTA, 1 mM DTT; room temperature
APC (303-739) [6] = target: T2, APC (303-739); assay: fluorescence polarisation; direct binding: tracer fixed at 20 nM, range of concentrations of APC (303-739), read after 1.5 h; EC50 by nonlinear regression
MAI-516 = target: T3, MAI-516 (N-terminal 4-methoxy-phenyl group (R^1)); assay: ITC; MicroCal ITC200, 30 °C; 50 mM HEPES pH 7.5, 300 mM NaCl, 1 mM EDTA; APC in the cell at 10–20 μM, peptide injected at 100–200 μM; single-site model
T3 construct: peptidomimetic; the text names its residues A181, G182, E183, S184, L185 and Y186 (Asef numbering); source: synthetic peptide (Supplementary Methods)

| Binder | IC50 (APC (303-739) [4]) [nM] | IC50 (APC (303-739) [5]) [nM] | also measured |
| --- | --- | --- | --- |
| Ac-GGGGEQLAINELISDGK(FITC)-NH2 (stretch of Asef (Rho guanine nucleotide exchange factor 4); lysine that carries FITC; source: synthetic peptide, bought: Changzhou Kanglong Biotech Ltd) [tracer 1 (Ac–GGGGEQLAINELISDGK[FITC]–NH2)] |  |  | Kd (APC (303–739) [1]): 580 nM; EC50 (APC (303–739) [2]): 540 nM |
| Cbz-AGESLYEK(FITC)-NH2 (designed from the Asef hot spot 181-187; the systematic name on D1:p12 gives (R) at the lysine carbon; source: synthetic peptide (general procedure B; FITC-labeled tracer peptides obtained from Changzhou Kanglong Biotech)) [tracer 7] |  |  | stoichiometry N (APC (303-739) [3]): 1.6 |
| Ac-GGAGEALAINELISDGK(FITC′)-NH2 (designed from tracer 1 (Asef stretch) by changing residues of the hot spot GGEQLAI; source: synthetic peptide, bought: Changzhou Kanglong Biotech Ltd) [tracer 2 (Ac–GGAGEALAINELISDGK[FITC]–NH2)] |  |  | EC50 (APC (303–739) [2]): 180 nM |
| {benzofuran‑2‑carbonyl}-AGESLYE-NH2 [MAI-453] | 460 ± 140 | 260 ± 10 |  |
| Cbz-AGES[hLeu]YE-NH2 [MAI-426] | 840 ± 190 | 1200 ± 60 |  |
| Cbz-AGESLYEGGGGGK(FITC′)-NH2 (source: synthetic peptide (general procedure B; FITC-labeled tracer peptides obtained from Changzhou Kanglong Biotech)) [tracer 12] |  |  | EC50 (APC (303-739) [6]): 51 nM |
| Bz-AGESLYE-NH2 [MAI-467] | 820 ± 300 | 320 ± 7 |  |
| APC W593A, N641A (domain or fragment) RLTSHLGTKVEMVYSLLSMLGTHDKDDMSRTLLAMSSSQDSCISMRQSGCLPLLIQLLHGNDKDSVLLGNSRGSKEARARASAALHNIIHSQPDDKRGRREIRVLHLLEQIRAYCETCWEWQEAHEPGMDQDKNPMPAPVEHQICPAVCVLMKLSFDEEHRHAMNELGGLQAIAELLQVDCEMYGLTNDHYSITLRRYAGMALTNLTFGDVANKATLCSMKGCMRALVAQLKSESEDLQQVIASVLRNLSWRADVNSKKTLREVGSVKALMECALEVKKESTLKSVLSALANLSAHCTENKADICAVDGALAFLVGTLTYRSQTNTLAIIESGGGILRAVSSLIATNEDHRQILRENNCLQTLLQHLKSHSLTIVSNACGTLWNLSARNPKDQEALWDMGAVSMLKNLIHSKHKMIAMGSAAALRNLMANRPAKYKD |  |  | Kd (MAI-516): 860 nM |
| {2‑(methylthio)pyrimidine‑4‑carbonyl}-AGESLYE-NH2 [MAI-456] | 570 ± 120 | 990 ± 60 |  |
| Bz-AGESLY[Bpa]-NH2 (SMILES CC(C)C[C@H](NC(=O)[C@H](CO)NC(=O)[C@H](CCC(=O)O)NC(=O)CNC(=O)[C@H](C)NC(=O)c1ccccc1)C(=O)N[C@@H](Cc1ccc(O)cc1)C(=O)N[C@@H](Cc1ccc(C(=O)c2ccccc2)cc1)C(N)=O) [MAI-457] | 590 ± 200 | 92 ± 3 |  |
| {oxazole‑2‑carbonyl}-AGESLYE-NH2 [MAI-455] | 530 ± 120 | 860 ± 30 |  |
| Cbz-AGESLYENELK(FITC′)-NH2 (source: synthetic peptide (general procedure B; FITC-labeled tracer peptides obtained from Changzhou Kanglong Biotech)) [tracer 9] |  |  | EC50 (APC (303-739) [6]): 47 nM |
| {morpholine‑4‑carbonyl}-AGESLYE-NH2 [MAI-451] | 390 ± 120 | 270 ± 5 |  |
| {oxazole‑5‑carbonyl}-AGESLYE-NH2 [MAI-460] | 620 ± 190 | 550 ± 9 |  |
| Cbz-AGESLYEGGGK(FITC′)-NH2 (source: synthetic peptide (general procedure B; FITC-labeled tracer peptides obtained from Changzhou Kanglong Biotech)) [tracer 13] |  |  | EC50 (APC (303-739) [6]): 48 nM |
| {pyrimidine‑4‑carbonyl}-AGESLYE-NH2 [MAI-464] | 740 ± 160 | 220 ± 10 |  |
| Cbz-AGESLYEK(FITC)-NH2 (tracer 6 with a shortened linker; source: synthetic peptide, bought: Changzhou Kanglong Biotech Ltd) [tracer 7 (Z–AGESLYEK[FITC]–NH2)] |  |  | Kd (APC (303–739) [1]): 78 nM; EC50 (APC (303–739) [2]): 16 nM |
| Bz-AGESLY[dE]-NH2 [MAI-465] | 750 ± 150 | 1000 ± 30 |  |
| Cbz-AGESLYENELISK(FITC′)-NH2 (source: synthetic peptide (general procedure B; FITC-labeled tracer peptides obtained from Changzhou Kanglong Biotech)) [tracer 8] |  |  | EC50 (APC (303-739) [6]): 41 nM |
| Bz-AGES[Ala(cPent)]YE-NH2 (SMILES C[C@H](NC(=O)c1ccccc1)C(=O)NCC(=O)N[C@@H](CCC(=O)O)C(=O)N[C@@H](CO)C(=O)N[C@@H](CC1CCCC1)C(=O)N[C@@H](Cc1ccc(O)cc1)C(=O)N[C@@H](CCC(=O)O)C(N)=O) [MAI-461] | 630 ± 200 | 80 ± 3 |  |
| {furan‑2‑carbonyl}-AGESLY[Bpa]-NH2 [MAI-454] | 480 ± 150 | 280 ± 10 |  |
| Ac-GGAGESLYENELISDGK(FITC′)-NH2 (designed from tracer 1 (Asef stretch) by changing residues of the hot spot GGEQLAI; source: synthetic peptide, bought: Changzhou Kanglong Biotech Ltd) [tracer 3 (Ac–GGAGESLYENELISDGK[FITC]–NH2)] |  |  | EC50 (APC (303–739) [2]): 68 nM |
| Ac-YGAGESLYENELISDGK(FITC′)-NH2 (tracer 3 with its first residue replaced; source: synthetic peptide, bought: Changzhou Kanglong Biotech Ltd) [tracer 4 (Ac–YGAGESLYENELISDGK[FITC]–NH2)] |  |  | EC50 (APC (303–739) [2]): 48 nM |
| Ac-EGAGESLYENELISDGK(FITC′)-NH2 (tracer 3 with its first residue replaced; source: synthetic peptide, bought: Changzhou Kanglong Biotech Ltd) [tracer 5 (Ac–EGAGESLYENELISDGK[FITC]–NH2)] |  |  | EC50 (APC (303–739) [2]): 46 nM |
| Cbz-AGESLYEGGGGGGGK(FITC′)-NH2 (source: synthetic peptide (general procedure B; FITC-labeled tracer peptides obtained from Changzhou Kanglong Biotech)) [tracer 11] |  |  | EC50 (APC (303-739) [6]): 53 nM |
| Cbz-AGESLYENELISDGK(FITC′)-NH2 (tracer 3 with its first two residues GG replaced by a benzyloxycarbonyl (Z) group; source: synthetic peptide, bought: Changzhou Kanglong Biotech Ltd) [tracer 6 (Z–AGESLYENELISDGK[FITC]–NH2)] |  |  | EC50 (APC (303–739) [2]): 40 nM |
| 2Furoyl-AGESLY[Phe(4-tBu)]-NH2 (SMILES CC(C)C[C@H](NC(=O)[C@H](CO)NC(=O)[C@H](CCC(=O)O)NC(=O)CNC(=O)[C@H](C)NC(=O)c1ccco1)C(=O)N[C@@H](Cc1ccc(O)cc1)C(=O)N[C@@H](Cc1ccc(C(C)(C)C)cc1)C(N)=O) [MAI-466] | 810 ± 200 | 940 ± 30 |  |
| Cbz-AGESLYENK(FITC′)-NH2 (source: synthetic peptide (general procedure B; FITC-labeled tracer peptides obtained from Changzhou Kanglong Biotech)) [tracer 10] |  |  | EC50 (APC (303-739) [6]): 52 nM |
| Cbz-AGESLYEGK(FITC′)-NH2 (source: synthetic peptide (general procedure B; FITC-labeled tracer peptides obtained from Changzhou Kanglong Biotech)) [tracer 14] |  |  | EC50 (APC (303-739) [6]): 50 nM |
| {2‑chloropyrimidine‑4‑carbonyl}-AGESLYE-NH2 [MAI-459] | 600 ± 120 | 840 ± 30 |  |
